From US20240182908, “DEOXYRIBONUCLEOSIDE OR DEOXYRIBONUCLEOTIDE HAVING NOVEL ARTIFICIAL BASE APPLICABLE TO SCREENING FOR DNA APTAMER, AND NUCLEIC ACID CONTAINING THE SAME” (TAGCYX BIOTECHNOLOGIES INC., published 2024)
Where two headings read alike, the source gives them in different places.

Legend:
[1] = target: T1, VEGF165 (UniProt P15692-4 P15692-4:27-191); assay: EMSA; PBS + 0.005% NP-40, 37 C; shift band lost; details: chain copies: 2
Procedure: (§1) Analysis was performed by EMSA on whether the most concentrated candidate sequence binds to the target protein. First, an oligomer corresponding to the candidate sequence (T-00244, see below for the sequence in Table 8) was synthesized with a chemical synthesis method, and purified with an OPC (cartridge). The purified oligomer of the candidate sequence was added into the binding solution to adjust to 0.2 μM, and a folding operation (at 95° C., for 5 minutes→(−0.1° C./sec)→at 25° C.) was performed to form tertiary structures. Thereafter, VEGF165 was diluted with the binding solution to 0.2 μM and mixed with the folded DNA solution, and the resultant was incubated at 37° C. for 30 minutes. The sample incubated was subjected to electrophoresis with 8% unmodified polyacrylamide gel to analyze on whether a band indicative of the DNA-protein complex could be detected. DNA was stained with SYBR Gold, and detected with blue light at 470 nm.
(§2) Subsequently, to determine whether the novel artificial base dDscp is involved in binding to VEGF165, evaluation was performed with oligomers obtained by substituting dDscp with dDs or dA (dDs-substituted form: T-00245, dA-substituted form: T-00246, see below for the sequences in Table 8). The oligomers were synthesized with a chemical synthesis method, and purified with an OPC (cartridge). […]

[2] = target: T2, sIL-6R (soluble interleukin-6 receptor) (UniProt P08887 P08887:20-355); assay: EMSA; PBS + 0.005% NP-40, room temperature; shift band lost
Procedure: as §1, with “candidate sequence (T-00247, see below” for “candidate sequence (T-00244, see below”, “in Table 9) was synthesized” for “in Table 8) was synthesized”, “structures. Thereafter, sIL-6R was diluted” for “structures. Thereafter, VEGF165 was diluted”, “solution to 0.6 μM and” for “solution to 0.2 μM and”, “incubated at room temperature for 30” for “incubated at 37° C. for 30”
as §2, with “sIL-6R,” for “VEGF165,”, “T-00248,” for “T-00245,”, “T-00249,” for “T-00246,”, “9).” for “8).”

[3] = target: T1, VEGF165; assay: EMSA; PBS + 0.005% NP-40, 37 C; shift band lost; details: chain copies: 2; remark: listed apart in the source
Procedure: as §1, with “The purified” for “Analysis was performed by EMSA on whether the most concentrated candidate sequence binds to the target protein. First, an”, “of” for “corresponding to”, “(T-00199,” for “(T-00244,”, “4)” for “8) was synthesized with a chemical synthesis method, and purified with an OPC (cartridge). The purified oligomer of the candidate sequence”, “C.” for “C.,”, “10%” for “8%”
Subsequently, to determine whether the novel artificial base dDsbn is involved in binding to VEGF165, evaluation was performed with oligomers obtained by substituting dDsbn with dDs or dA (dDs-substituted form: T-00200, dA-substituted form: T-00201, see below for the sequences in Table 4). The oligomers were synthesized with a chemical synthesis method, and purified with an OPC (cartridge). For EMSA, a folding operation and reaction were performed as described above, and analysis was performed with unmodified polyacrylamide (in FIG. 2, dDs: two lanes in the center, dA: two lanes in the right).

[4] = target: T2, sIL-6R (soluble interleukin-6 receptor); assay: EMSA; PBS + 0.005% NP-40, room temperature; shift band lost; remark: listed apart in the source
Procedure: The purified oligomer of the candidate sequence was added into the binding solution to adjust to 0.2 μM, and a folding operation (at 95° C. for 5 minutes→(−0.1° C./sec)→at 25° C.) was performed to form tertiary structures. Thereafter, sIL-6R was diluted with the binding solution to 0.2 μM and mixed with the folded DNA solution, and the resultant was incubated at room temperature for 30 minutes. The sample incubated was subjected to electrophoresis with 8% unmodified polyacrylamide gel to analyze on whether a band indicative of the DNA-protein complex could be detected. DNA was stained with SYBR Gold, and detected with blue light at 470 nm (two lanes in the left in FIG. 4).
Subsequently, to determine whether the novel artificial base dDsbn is involved in binding to sIL-6R, evaluation was performed with oligomers obtained by substituting dDsbn with dDs or dA (dDs-substituted form: T-00203, dA-substituted form: T-00204, see below for the sequences in Table 5). The oligomers were synthesized with a chemical synthesis method, and purified with an OPC (cartridge). For EMSA, a folding operation, reaction, and analysis with unmodified polyacrylamide were performed as described above (FIG. 4).

T1 sequence (P15692 other isoform, or with tags, fused parts or gaps): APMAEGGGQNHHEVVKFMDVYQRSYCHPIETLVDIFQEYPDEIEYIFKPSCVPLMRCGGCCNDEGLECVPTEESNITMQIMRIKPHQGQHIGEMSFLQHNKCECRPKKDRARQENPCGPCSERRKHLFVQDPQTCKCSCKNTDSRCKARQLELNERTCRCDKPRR
T2 sequence (P08887 20-355, one chain of several): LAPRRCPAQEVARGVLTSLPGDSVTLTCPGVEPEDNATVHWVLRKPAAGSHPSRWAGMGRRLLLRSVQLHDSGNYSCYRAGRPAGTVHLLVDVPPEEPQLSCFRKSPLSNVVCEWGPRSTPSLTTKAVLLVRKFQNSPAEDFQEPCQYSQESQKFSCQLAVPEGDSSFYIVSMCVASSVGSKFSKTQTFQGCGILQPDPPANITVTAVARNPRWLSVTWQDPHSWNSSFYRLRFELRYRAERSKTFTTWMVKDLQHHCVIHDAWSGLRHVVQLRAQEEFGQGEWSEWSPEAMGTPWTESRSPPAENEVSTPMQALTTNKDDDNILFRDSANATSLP

B1: T-00246 (ssDNA)
DNA: GCGTGTTGAGCTGTATTAGGGTGTCAGGTTTTGGTCAGGCGTTCAAACGTAGAGGAATGGACACTTCGGCGATACAATCCTGATCCATGAGACGG
B1: no binding [1].

B2: T-00249 (ssDNA)
DNA: GCGTGTTGAGCTGTATTAGGGTGTCAGGAAGGATTCGGGGGTGGATTTAGGGGGGGATCGTTGTGGAGGCGATACAATCCTGATCCATGAGACGG
B2: no binding [2].

B3: T-00201 (ssDNA)
DNA: CTCCATTGACTCGGCTTAAACTCCCGTCAGTTATGAATAGGTACGCATGCGGAGTTCGCTACCCCGCCATGGTCATATTGGGGTGCTCCTTGGCT
B3: no binding [3].

B4: T-00204 (ssDNA)
DNA: CTCCATTGACTCGGCTTAAACTCCCAGGAGGTGGTGGGGGTGGGATTAGGGTTGGGATTGGAGGGGTGTCGGTCATATTGGGGTGCTCCTTGGCT
B4: no binding [4].
